Experimental data taken from publication PMC10878280 (Journal of Virology, 2024).

Target: neuraminidase (NA) of A/California/04/2009 (Influenza A virus A/California/04/2009 …, UniProt C3W5S3, strain)
Test: fluorescence imaging with FRAP of labelled antibody on transfected cells
Conditions: one partner purified

B1: CD6 IgG (antibody, V domains shown)
VH: QVKLQESGGGLVQPKGSLKLSCAASGFTFNTYAMNWVRQAPGKGLEWVARIRSKSNNYATFYADSVKDRFTISRDDSQSMLYLQMHNLKTDDTAMYYCVRPSIYYYASGYLDVWGAGTTVTVSS
VL: QIVLSQSPAILSASPGEKVTMTCRTSSSVSYMHWYQQKPGSSPKPWIYATSNLASGVPFRFSGSGSGTSYSLTISRVEAEDAATYYCQQWNSNPPTFGGGTKLEIK
notes: not shown: ybbR, C-terminal, kept; copies: 2 + 2
Question: Does B1 bind?
Answer: Result: binds
